Earlier results, collected in publication PMC8707981.
Like-named read-outs stand apart in the source and are kept apart here.

Legend:
[1] = target: Spike protein RBD (SARS-CoV-2) (UniProt P0DTC2)
[2] = target: Spike protein RBD (SARS-CoV-2) (UniProt P0DTC2); remark: listed apart in the source

For Casirivimab, the Kd [1] is given as 0.0458 nM.

In the case of Imdevimab, the Kd [2] is listed as 0.0467 nM.
